Results reported in US20110027291A1, “METHODS, SYSTEMS AND PRODUCTS FOR PREDICTING RESPONSE OF TUMOR CELLS TO A THERAPEUTIC AGENT AND TREATING A PATIENT ACCORDING TO THE PREDICTED RESPONSE” (MERRIMACK PHARMACEUTICALS, INC., priority 2008, published 2011).
Entries after “also recorded” stand apart in the source; their conditions may differ.

Experiments:
ErbB3 [1] = target: T1, ErbB3 (UniProt P21860 20-643, limits assumed); experiment: Kinexa
T1 construct: Elsewhere it speaks of the ectodomain of human ErbB3; also called E3; HER3

[2] = tested on: MALME3M xenograft tumor (melanoma cancer line); experiment: Xenograft efficacy study with Ab #6: MALME3M; type: in vivo, nu/nu mice
Description: (§1) In this example, four xenograft tumor models were used to identify tumor cell lines that responded to treatment with the anti-ErbB3 antibody Ab #6. The four xenograft tumor models studied represent different indications: MALME3M (melanoma cancer line; ATCC No. HTB-64), ADRr (ovarian cancer cell line; NCI-60, cosmic sample ID No. 905987), ACHN (renal cancer cell line; ATCC No. CRL-1611) and DU145 (prostate cancer cell line; ATCC No. HTB-81).
(§2) In the xenograft tumor models, mice (nu/nu mice: 3-4 week old female mice, T-cell deficient; outbred; Albino background; from Charles River Labs, Wilmington, Mass.) are implanted in the right flank with […] cells/mouse (depending on cell line) in 200 μl via subcutaneous injection. Mice are monitored for initial tumor growth. Tumor cells are allowed to grow for several days until the tumor volume is approximately 200 mm^3. The tumor volume is calculated as V=(π/6 (L×W^2). The mice are treated with the Ab #6 antibody at a dosage of 600 μg/injection every 3 days (qd3). Control mice are treated with phosphate buffered saline (PBS).
(§3) Tumor volume is measured for 60-80 days.
(§4) As a measure of responsiveness of the tumor to Ab #6, the exponential growth rate is determined, which described the experimental data best. The following formula is used to describe the exponential growth. […]

[3] = tested on: DU145 xenograft tumor (prostate cancer cell line); experiment: Xenograft efficacy study with Ab #6: DU145; type: in vivo, nu/nu mice
Description: as §1, §2, §3, §4

[4] = tested on: ADRr xenograft tumor (ovarian cancer cell line); experiment: Xenograft efficacy study with Ab #6: ADRr; type: in vivo, nu/nu mice
Description: as §1, §2, §3, §4

[5] = tested on: ACHN xenograft tumor (renal cancer cell line); experiment: Xenograft efficacy study with Ab #6: ACHN; type: in vivo, nu/nu mice
Description: as §1, §2, §3, §4

IGROV1 xenograft tumor = experiment: Xenograft study with Ab #6 (predicted set): IGROV1; type: in vivo, mice
Description: as §2
(§5) To test these model predictions, three additional in vivo xenograft studies were performed. The IGROV1, OVCAR8 and SKOV3 cell lines were used in xenograft studies conducted as described in Example 1, wherein mice were treated with 600 μg of Ab #6 every 3 days or with PBS as a control. The xenograft responses, as determined by changes in tumor volume (in mm^3) over time, are summarized in the graphs of FIGS. 9A-9C. Again, the Growth Rate Reduction (GRR) value for each cell line was calculated using the following formula:
(§6) Growth Rate Reduction=1−(Ab #6 Growth Rate)/(PBS Growth Rate)

OVCAR8 xenograft tumor = experiment: Xenograft study with Ab #6 (predicted set): OVCAR8; type: in vivo, mice
Description: as §2, §5, §6

SKOV3 xenograft tumor = experiment: Xenograft study with Ab #6 (predicted set): SKOV3; type: in vivo, mice
Description: as §2, §5, §6

BT474 xenograft tumor = experiment: Xenograft study with Ab #6 (MM-121): BT474; type: in vivo, mice
Description: In this example, the data obtained for the four cell lines examined in the xenograft studies described in Example 1 (ADRr, ACHN, DU154 and MALME3M) and four cell lines including the three examined in the xenograft studies described in Example 7 (IGROV 1, OVCAR8 and SKOV3), as well as a fourth, BT474, also examined in xenograft studies as described in Example 7, were further examined to determine whether direct biomarkers for Ab #6 (MM-121) responsiveness could be identified.
Next, it was examined whether the concentration of heregulin (HRG) in combination with one receptor concentration (e.g., ErbB1, ErbB3) effectively classified the xenograft data into responders and non-responders. As illustrated in the graph of FIG. 11 (in which the log of the concentration of HRG is plotted against the log of the concentration of ErbB1), these two concentration measurements, HRG and one of the ErbB receptors, were able to accurately classify the xenograft data into responders and non-responders. More specifically, the data for four non-responders BT474, MALME3, ADRr and IGROV1, were separable from the data for four responders, OVCAR8, SKOV3, ACHN, and DU154, thereby allowing for classification of non-responders versus responders. […] For this example, EGFR is measured by FACS and HRG is measured by RT-PCR. […]

MDA-MB-231 xenografts = experiment: Nude mouse xenograft test of MM-121: MDA-MB-231; type: in vivo
Description: (§7) FIG. 11 is a graph depicting the ability of an anti-ErbB3 antibody (Ab #6, MM-121) to inhibit proliferation of ACHN cells and cells of other cell lines. The center line of the three parallel diagonal lines represents the line computed to maximally separate MM-121 responders from non-responders. Predicted responder MDA-MB-231 was subsequently tested as nude mouse xenografts and was confirmed as a responder (i.e., growth of MDA-MB-231 as nude mouse xenografts was inhibited by MM-121 treatment). Other predicted responders would not grow adequately as xenografts and so could not be tested. Predicted non-responders ZR75-1 and HOP92 were subsequently tested as nude mouse xenografts and were confirmed as non-responders (i.e., growth of each as nude mouse xenografts was not inhibited by MM-121 treatment). Other predicted non-responders have not yet been tested experimentally.

ZR75-1 xenografts = experiment: Nude mouse xenograft test of MM-121: ZR75-1; type: in vivo
Description: as §7

HOP92 xenografts = experiment: Nude mouse xenograft test of MM-121: HOP92; type: in vivo
Description: as §7

ErbB3 [6] = target: ErbB3 (Homo sapiens, UniProt P21860); experiment: Ab #6 rate constants measured by Kinexa (inhibitor parameter values, Table 13); type: binding
ErbB3 [7] = target: T1, ErbB3; experiment: Kinexa; same on-rate as 1.43e5 M^-1s^-1, converted to model units per well
[8] = Ab #6 600 μg/injection every 3 days vs PBS, negative GRR set to zero
[9] = Ab #6 600 μg/injection every 3 days vs PBS
[10] = 600 μg of Ab #6 every 3 days vs PBS

B1: anti-ErbB3 monoclonal antibody Ab #6 (antibody, V domains shown)
VH: EVQLLESGGGLVQPGGSLRLSCAASGFTFSHYVMAWVRQAPGKGLEWVSSISSSGGWTLYADSVKGRFTISRDNSKNTLYLQMNSLRAEDTAVYYCTRGLKMATIFDYWGQGTLVTVSS
VL: QSALTQPASVSGSPGQSITISCTGTSSDVGSYNVVSWYQQHPGKAPKLIIYEVSQRPSGVSNRFSGSKSGNTASLTISGLQTEDEADYYCCSYAGSSIFVIFGGGTKVTVL
notes: also called MM-121
B1 was tested, and the koff (ErbB3 [1]) was 0.00011 s⁻¹, the kon (ErbB3 [1]) was 143000 M⁻¹ s⁻¹ and the “GRR (Tumor Growth Rate Reduction)” value [2, 8] was 0%. The “effect of antibody treatment on tumor growth (in words)” value (shortened to “effect of antibody treatment”) ([2]; vs PBS control) was “did not inhibit tumor growth; also recorded: no response”, the “GRR (Tumor Growth Rate Reduction)” value [3, 9] was 72.6% and the “effect of antibody treatment” value ([3]; vs PBS control) was “inhibited tumor growth; also recorded: highest responsiveness”. For the same molecule, the “GRR (Tumor Growth Rate Reduction)” value [4, 8] was 0%, the “effect of antibody treatment” value ([4]; vs PBS control) was “did not inhibit tumor growth; also recorded: no response” and the “GRR (Tumor Growth Rate Reduction)” value [5, 9] was 28.0%. For the same molecule, the “effect of antibody treatment” value ([5]; vs PBS control) was “inhibited tumor growth; also recorded: mid-range responsiveness”, the “experimentally observed responsiveness to Ab #6 based on GRR value” (“experimentally observed responsiveness” below) (IGROV1 xenograft tumor) was “non-responder” and the “GRR (Tumor Growth Rate Reduction)” value (IGROV1 xenograft tumor; [10]) was 6.3%. The “experimentally observed responsiveness” value (OVCAR8 xenograft tumor) was “responders”, the “GRR (Tumor Growth Rate Reduction)” value (OVCAR8 xenograft tumor; [10]) was 91.4% and the “experimentally observed responsiveness” value (SKOV3 xenograft tumor) was “responders”. The “GRR (Tumor Growth Rate Reduction)” value (SKOV3 xenograft tumor; [10]) was 19.6%, the “xenograft responsiveness (responder / non-responder)” value (BT474 xenograft tumor) was “non-responders” and the “growth as nude mouse xenografts under MM-121 treatment” value (from here on “growth as nude mouse xenografts”) (MDA-MB-231 xenografts) was “inhibited”. For the same molecule, the “growth as nude mouse xenografts” value (ZR75-1 xenografts) was “not inhibited”, the “growth as nude mouse xenografts” value (HOP92 xenografts) was “not inhibited” and the “Ab #6 inhibitor binding to ErbB3 (on-rate before unit conversion)” value (ErbB3 [6]) was “calculated as 1.43e5 M^−1s^−1/(Vmedia * Av/Num_cells)”. The “kr Ab #6_1: Ab #6 inhibitor dissociation from ErbB3” value (ErbB3 [6]) was 0.00011 s⁻¹, the “kr Ab #6_2: Ab #6 inhibitor dissociation from a second ErbB3” value (ErbB3 [6]; 2 * krmm121_1) was 0.00022 s⁻¹ and the “kf Ab #6_1: Ab #6 inhibitor binding to ErbB3” value (ErbB3 [6]; unit conversion from M^−1s^−1 /(Vmedia * Av/Num_cells), Num_cells = 30,000 per well) was 7.15E−11 molecules^−1 sec^−1. It also gave a kon (ErbB3 [7]) of 143000 M⁻¹ s⁻¹.
